Measurements reported in US20230235004A1 (published 2023).

T1: mouse MAdCAM expressed on cells (mouse, UniProt Q61826 22-405)
T1 construct: whole, on cells
T1 sequence (looked up): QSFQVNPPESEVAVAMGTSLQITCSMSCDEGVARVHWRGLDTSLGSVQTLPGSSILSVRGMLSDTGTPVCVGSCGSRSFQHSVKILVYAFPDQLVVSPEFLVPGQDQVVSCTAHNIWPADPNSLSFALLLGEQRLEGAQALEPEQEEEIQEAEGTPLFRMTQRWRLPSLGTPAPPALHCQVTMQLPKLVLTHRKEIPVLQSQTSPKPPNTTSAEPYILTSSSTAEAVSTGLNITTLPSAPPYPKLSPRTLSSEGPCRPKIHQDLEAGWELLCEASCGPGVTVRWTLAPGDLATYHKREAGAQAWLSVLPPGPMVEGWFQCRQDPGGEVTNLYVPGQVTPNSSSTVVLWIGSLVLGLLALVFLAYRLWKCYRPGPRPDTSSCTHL

T2: human MAdCAM expressed on cells (human, UniProt Q13477 19-382)
T2 construct: whole, on cells
T2 sequence (looked up): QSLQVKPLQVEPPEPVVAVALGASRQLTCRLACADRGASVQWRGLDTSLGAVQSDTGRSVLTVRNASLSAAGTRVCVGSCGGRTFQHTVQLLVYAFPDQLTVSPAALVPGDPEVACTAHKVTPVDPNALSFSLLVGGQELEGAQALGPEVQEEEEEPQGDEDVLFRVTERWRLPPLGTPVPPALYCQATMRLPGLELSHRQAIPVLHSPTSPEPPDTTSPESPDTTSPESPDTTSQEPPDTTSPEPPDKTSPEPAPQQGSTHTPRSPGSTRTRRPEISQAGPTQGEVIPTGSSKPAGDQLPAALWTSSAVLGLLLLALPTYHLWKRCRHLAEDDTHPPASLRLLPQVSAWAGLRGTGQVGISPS


Columns and labels:
[1] = target: T1, mouse MAdCAM expressed on cells; assay: cell binding
[2] = target: T2, human MAdCAM expressed on cells; assay: cell binding

binding result [1]	binding result [2]	Binder
no binding	binds	MAdCAM Antibody Table 2 clone 69 (antibody, V domains shown, IgG format) VH: QVQLVQSGAEVKKPGASVKVSCKASGYTFTSYYMHWVRQAPGQGLEWMGIIDPSGGSTSYAQKFQGRVTMTRDTSTSTVYMELSSLRSEDTAVYYCAREEWSSGGVGYFDYWGQGTLVTVSS VL: DIQMTQSPSSLSASVGDRVTITCRASQGISSYLAWYQQKPGKAPKLLIYATSSLQTGVPSRFSGSGSGTDFTLTISSLQPEDFATYYCQQTYSIPITFGQGTRLEIK
no binding	binds	MAdCAM Antibody Table 2 clone 70 (antibody, V domains shown, IgG format) VH: QVQLVQSGAEVKKPGASVKVSCKASGYPFTDYYMHWVRQAPGQGLEWMGWIKPNSGDTEYAQKFQGRVTMTRDTSTSTVYMELSSLRSEDTAVYYCARDRFVGKPDYYYYGMDVWGQGTMVTVSS VL: DIQMTQSPSSLSASVGDRVTITCRASQSISVWLAWYQQKPGKAPKLLIYAASSLQSGVPSRFSGSGSGTDFTLTISSLQPEDFATYYCQQSYDTPYTFGQGTKLEIK
no binding	binds	MAdCAM Antibody Table 2 clone 66 (antibody, V domains shown, IgG format) VH: QVQLVQSGAEVKKPGASVKVSCKASGYTFTGHYMHWVRQAPGQGLEWMGIINPSGGSTSYAQKFQGRVTMTRDTSTSTVYMELSSLRSEDTAVYYCARDGAWFGEEYYYGMDVWGQGTTVTVSS VL: DIQMTQSPSSLSASVGDRVTITCRASQGISNWLAWYQQKPGKAPKLLIYDASNLETGVPSRFSGSGSGTDFTLTISSLQPEDFATYYCQQYYSFPLYTFGQGTKVEIK
no binding	binds	MAdCAM Antibody Table 2 clone 44 (antibody, V domains shown, IgG format) VH: not shown VL: DIQMTQSPSSLSASVGDRVTITCQASQDISNYLNWYQQKPGKAPKLLIYAASSLQSGVPSRFSGSGSGTDFTLTISSLQPEDFATYYCQQTYSGWTFGPGTKVDIK
no binding	binds	MAdCAM Antibody Table 2 clone 57 (antibody, V domains shown, IgG format) VH: EVQLLESGGGLVQPGGSLRLSCAASGFSVSSNYMSWVRQAPGKGLEWVAGISYDGSSKPYADSVKGRFTISRDNSKNTLYLQMNSLRAEDTAVYYCARSRGIAARPLQHWGQGTLVTVSS VL: not shown
no binding	binds	MAdCAM Antibody Table 2 clone 38 (antibody, V domains shown, IgG format) VH: QVQLVQSGAEVKKPGASVKVSCKASGYTFTDYFLHWVRQAPGQGLEWMGWMNPTSGNTGYAQKFQGRVTMTRDTSTSTVYMELSSLRSEDTAVYYCAREGEGSGFDYWGQGTLVTVSS VL: DIQMTQSPSSLSASVGDRVTITCRASQGINSWLAWYQQKPGKAPKLLIYDASNLETGVPSRFSGSGSGTDFTLTISSLQPEDFATYYCQQSYSTPLTFGGGTKVEIK
no binding	binds	MAdCAM Antibody Table 2 clone 67 (antibody, V domains shown, IgG format) VH: QVQLVQSGAEVKKPGASVKVSCKASGYTFTGYYMHWVRQAPGQGLEWMGMIYPRDGSTSYAQKFQGRVTMTRDTSTSTVYMELSSLRSEDTAVYYCAMTGWGYGMDVWGKGTTVTVSS VL: DIQMTQSPSSLSASVGDRVTITCRASQGINNYLAWYQQKPGKAPKLLIYDASTLQSGVPSRFSGSGSGTDFTLTISSLQPEDFATYYCQQSYSAPPTFGQGTKLEIK
no binding	binds	MAdCAM Antibody Table 2 clone 56 (antibody, V domains shown, IgG format) VH: EVQLVESGGGLVKPGGSLRLSCAASGFTFSSYWMSWVRQAPGKGLEWVSAIGTGGGTYYAAPVKGRFTISRDDSKNTLYLQMNSLKTEDTAVYYCAREWLVPYYGMDVWGQGTTVTVSS VL: DIQMTQSPSSLSASVGDRVTITCRASQSISRWLAWYQQKPGKAPKLLIYGASNLQSGVPSRFSGSGSGTDFTLTISSLQPEDFATYYCQQSYSTPWTFGQGTKVEIK
no binding	binds	MAdCAM Antibody Table 2 clone 41 (antibody, V domains shown, IgG format) VH: QVQLVQSGAEVKKPGASVKVSCKASGYTFTSYYMHWVRQAPGQGLEWMGIINPSGGSTSYAQKFQGRVTMTRDTSTSTVYMELSSLRSEDTAVYYCARDTGYSYGRYYYYGMDVWGQGTLVTVSS VL: DIQMTQSPSSLSASVGDRVTITCRASQSIGRWLAWYQQKPGKAPKLLIYDASNLQSGVPSRFSGSGSGTDFTLTISSLQPEDFATYYCQQSYSIPITFGQGTKVEIK
no binding	binds	MAdCAM Antibody Table 2 clone 43 (antibody, V domains shown, IgG format) VH: QVQLVQSGAEVKKPGASVKVSCKASGYTFTSYGISWVRQAPGQGLEWMGWMHPKSGDTGLTQKFQGRVTMTRDTSTSTVYMELSSLRSEDTAVYYCARDTPYYYYGMDVWGQGTTVTVSS VL: DIQMTQSPSSLSASVGDRVTITCRASQSISSWLAWYQQKPGKAPKLLIYAASSLQSGVPSRFSGSGSGTDFTLTISSLQPEDFATYYCQQSYSVPITFGQGTKVEIK
no binding	binds	MAdCAM Antibody Table 2 clone 61 (antibody, V domains shown, IgG format) VH: QVQLVQSGAEVKKPGASVKVSCKASGDTFTGYYIHWVRQAPGQGLEWMGWINPNSGGTNYAQKFQGRVTMTRDTSTSTVYMELSSLRSEDTAVYYCARSGLWLGSYYGMDVWGQGTLVTVSS VL: DIQMTQSPSSLSASVGDRVTITCRASQTISIWLAWYQQKPGKAPKLLIYDASTLQSGVPSRFSGSGSGTDFTLTISSLQPEDFATYYCQQYSSYPLTFGQGTKVEIK
no binding	binds	MAdCAM Antibody Table 2 clone 39 (antibody, V domains shown, IgG format) VH: QVQLVQSGAEVKKPGASVKVSCKASGYTFTSYYMHWVRQAPGQGLEWMAWMNPNSGNTGYAQKFQGRVTMTRDTSTSTVYMELSSLRSEDTAVYYCARDYDFWSGSLGYWGQGTLVTVSS VL: DIQMTQSPSSLSASVGDRVTITCRASQGISNYLAWYQQKPGKAPKLLIYAASSLQSGVPSRFSGSGSGTDFTLTISSLQPEDFATYYCQQSYSTPWTFGQGTKVEIK
no binding	binds	MAdCAM Antibody Table 2 clone 42 (antibody, V domains shown, IgG format) VH: QVQLVQSGAEVKKPGASVKVSCKASGYTLTDYYMHWVRQAPGQGLEWMGIINPSGGSTSYAQKFQGRVTMTRDTSTSTVYMELSSLRSEDTAVYYCAREEYSSSSGYFDYWGQGTLVTVSS VL: DIQMTQSPSSLSASVGDRVTITCRASQGISSWLAWYQQKPGKAPKLLIYAASSLQSGVPSRFSGSGSGTDFTLTISSLQPEDFATYYCQQSYSTPLTFGQGTKVEIK
no binding	binds	MAdCAM Antibody Table 2 clone 53 (antibody, V domains shown, IgG format) VH: QVQLVQSGAEVKKPGASVKVSCKASGYTFTSYYMHWVRQAPGQGLEWMGWMNPNSGNTGYAQKFQGRVTMTRDTSTSTVYMELSSLRSEDTAVYYCAREGLGYCTNGVCWNYYGMDVWGQGTLVTVSS VL: DIQMTQSPSSLSASVGDRVTITCRASQGISSWLAWYQQKPGKAPKLLIYGASSLQSGVPSRFSGSGSGTDFTLTISSLQPEDFATYYCQQSYSTPYTFGQGTKVEIK
no binding	binds	MAdCAM Antibody Table 2 clone 64 (antibody, V domains shown, IgG format) VH: EVQLLESGGGLVQPGGSLRLSCAASGFTFSNSDMNWVRQAPGKGLEWVAHIWNDGSQKYYADSVKGRFTISRDNSKNTLYLQMNSLRAEDTAVYYCARDRTDPGYSSAMDVWGQGTTVTVSS VL: DIQMTQSPSSLSASVGDRVTITCRASQDIRNYLGWYQQKPGKAPKLLIYDASSLETGVPSRFSGSGSGTDFTLTISSLQPEDFATYYCQQATSLPLTFGGGTKVEIK
no binding	binds	MAdCAM Antibody Table 2 clone 54 (antibody, V domains shown, IgG format) VH: QVQLVQSGAEVKKPGSSVKVSCKASGGTLSRYGVSWVRQAPGQGLEWMGGIIPIFGTTNYAQKFQGRVTITADESTSTAYMELSSLRSEDTAVYYCARDRVYYDSSGYPTWYFDLWGRGTLVTVSS VL: EIVMTQSPATLSVSPGERATLSCRASQSVSSSYLAWYQQKPGQAPRLLIYGASTRATGIPARFSGSGSGTEFTLTISSLQSEDFAVYYCQQYGSSPITFGQGTKVEIK
no binding	binds	MAdCAM Antibody Table 2 clone 62 (antibody, V domains shown, IgG format) VH: QVQLVQSGAEVKKPGASVKVSCKASGYTFTSYDINWVRQAPGQGLEWMGWINPNSGTTGYAQKFQGRVTMTRDTSTSTVYMELSSLRSEDTAVYYCARSPYYYYGMDVWGQGTTVTVSS VL: DIQMTQSPSSLSASVGDRVTITCRASHFISRWVAWYQQKPGKAPKLLIYAASTLQSGVPSRFSGSGSGTDFTLTISSLQPEDFATYYCQQSYSGISFGPGTKVDIK
no binding	binds	MAdCAM Antibody Table 2 clone 68 (antibody, V domains shown, IgG format) VH: EVQLLESGGGLVQPGGSLRLSCAASGFTFGDYAMSWVRQAPGKGLEWVAVVSYDGTNKYYADSVKGRFTISRDNSKNTLYLQMNSLRAEDTAVYYCAKDICSSTSCYFDLWGRGTLVTVSS VL: DIQMTQSPSSLSASVGDRVTITCRASQNINNYVNWYQQKPGKAPKLLIYDASNLETGVPSRFSGSGSGTDFTLTISSLQPEDFATYYCQQANSFPPTFGQGTRLEIK
